Source: the DeepSol protein solubility set

assay: soluble on expression in E. coli; label from the status in PepcDB or PDB records

Sequence | soluble on expression in E. coli
MAGDPMKNILIFPFLSISTGHHHVADALQAELESQGLAAEKIDIFSHSYRRLEKLSSVAYLKWIQYFPKTYSGIYRLLACGEFQHDKRYFMYECVFTQQMRHILQEKQPDIAFCTHALPSYLLNRLKPEYPNLTVVNVYTDFFVNQLWGRKNIDYHFVPSTEVKKQLISEGIDQNNIYLTGIPVHQNFEMESADTLQHHPPYTIIITGGSMGVGGILKWVQELSPGGKILYKILCGRNEKLYSYVKSLHHPLIEAIPYLHSKAEMNRLYEQATGIMTKPGGVTISECLQKRLPVFIYHALPGQEEMNLNLLHERKLVTDMRNWDMQKAEEYIAAFFQSNEQMKEYKKHVNGYLGEMSDRKIKDVLKRIIWKQKNTLLKLEHHHHHH | not soluble
MGSDKIHHHHHHMSGKNKSVADIMAVCQEMFEDLNFNYARKWKAAKEGRKVIGFLPVYSPIEMIHAAGCLPLGIFGGGDQMEVIHGDAYYQSYICRIPRSTIELGVTNRLDFVDGMIFPFVCDVIRNLSGIWKLMFPNVWSKFFDTPQNYDKSIGGTYYIQELQELKEGLETLTGRKISDADIQRSIGLYNENRRLIREVYAFRAKQPWLAPTSEVYVLMRAGLMMDVEEHNQMLKDYMAAAAKEDRPKRDNVRISIYGSFCEQPPLNLIKSIEMAGCYVVDDDYSLNNRFLMVDVPTTGNPLEALAITYLENSVETSCKYVPDGKVKGQFHVDAVKACGAEGVIYATPSFCDPALLDRPMVCNKLSEAGIPYIAFKYAENSGQMQPIREQAGTFADSIKLWS | not soluble
MAHHHHHHMCLGRSSGSALDTPLGAWWGGKRVAEIPPCPAESVTFVQLIARHFSPFVLRQHLPGAQDGLVTSSVQTREVAHKPVGCDVAVLVVVKRGAQVLRLPFARPHAKIPQKINKKLVRHALLTTRPLLLLQLKELSQCLNDRLWAAPTTQGALHTQKHAILARVVRVTPQHRRHRTTKAKQQQQQKQRNCSLVKSAHKT | not soluble
SAAATEHNRPSSGDRNLERRCSPNLSREVLYEIFRSLHTLVGQLDLRDDVVKITIDWNKLQSLSAFQPALLFSALEQHILYLQPFLAKLQSPIKEENTTAVEEIGRTEMGNKNEVNDKFSIGDLQEEEKHKESDLRDVKKTQIHFDPEVVQIKAGKAEIDRRISAFIERKQAEINENNVREFCNVIDCNQENSCARTDAIFTPYPGFKSHVKVSRVVYTYGPQTRPEGIPGSGHKPNSMLRDCGNQAVEERLQNIEAHLRLQTGGPVPRDIYQRIKKLEDKILELEGISPEYFQSVSFSGKRRKVQPPQQNYSLAELDEKISALKQALLRKSREAESMATHHLP | not soluble
MPLLDLLRPVSDEELRVLSERNPGWQFERLADGRLIVSPTGGESGRIRAAVLGPLYRWNEARGLGVVFDASTGFKLPDGSVLAPDAAFLLGKRWQALSQEAREGFPPLAPDAVFEVRSRSQGLEELREKAAWYLANGVRLVVLLDPYLHRVEVFRPGGVEGHQGPERVPLDPGLPGFALETRGLFLP | soluble
MSLTDVSRILKEARDQGRLTTLDYANLIFDDFMELHGDRHFSDDGAIVGGLAYLAGQPVTVIGIQKGKNLQDNLARNFGQPNPEGYRKALRLMKQAEKFGRPVVTFINTAGAYPGVGAEERGQGEAIAKNLMEMSDLKVPIIAIIIGEGGSGGALALAVADQVWMLENTMYAVLSPEGFASILWKDGSRATEAAELMKITAGELYKMGIVDRIIPEHGYFSSEIVDIIKANLIEQITSLQAKPLDQLLDERYQRFRKYEGHHHHHH | not soluble
MKIDTNFLCDLWMALFQFSNDENINEKECTALVDIMSLVEKVLVLKLQDDVPNIVKILAVLTDFGDSELPHSMDSLLRAYEPDLDNPIKKVA | not soluble
MHHHHHHGSACFAKGTNVLMADGSIECIENIEVGNKVMGKDGRPREVIKLPRGSETMYSVVQKSQHRAHKSDSSREMPELLKFTCNATHELVVRTPRSVRRLSRTIKGVEYFEVITFEMGQKKAPDGRIVELVKEVSKSYPVSEGPERANELVESYRKASNKAYFEWTIEARDLSLLGSHVRKATYQTYAPIGAAFARECRGFYFELQELKEDDYYGITLSDDSDHQFLLANQVVVH | soluble
KVKELTILYRGSTAPTLASGLTPFHKDSLDVWTDWGVNDIPTAIQITNGGGSTVTPQLKTSAETLKQTMKLYPNAQIYVYGHSLGSMNAQYAIADLDKKDIKRISGGFFYQGPNIYSNLTPKQQDTVKAINALDRLFNFIDRKDYVAIGYGTGDPTIGHLIEVESKKAGLV | not soluble
DHFFELMGTTTEQAYELVDLHPAYRLFPEGSPALDVDSGVGNVATLFDALHPGAGKKVQRYLRNATDVYHLSLRHFLYTTFSNPRDFLRADILRRLPYLARLLSSSLDTWVRNRFPHPILRQILSYPAVFLSTQPTQAPALYSLMSHTDLVEGVHYPRGGFAAIMSAIEKIDREAGVEFYYEHEVTDITIESGRACGITAAGPHGTSTFNADVVVSAADLHHTETRLLPPHLRSYPENYWSKRNPGLGTVLIMLGVRGHLPELAHHNLLFSKDWDPDFAAVYSGPHPSRPLGASQSIYISKTSATDSDAAPEGHENLFILVPVPANDALGHGNTYHHTASPRVEEITRATIAQIATWTGISDLDERIVVTKTIGPADFSERYHAWSSGAIGPAHTLMQSAFFRGKNMASKVKGLYYAGGTTVPGVGVPMCLISAENVITRIKAE | not soluble
MKTLHSLSEQLGGLLANQQQILASAESCTGGGVAYWVTEVAGSSAWFDRSFVTYSNEAKQEMLGVRQATLQQFGAVSEQTVEEMALGALLHSKATLAAAISGIAGPGGGSAEKPVGTVCFGFASVQGWLKVETCHFTGDREQVRQQAIAHVLQSLIEHLAADQVQNVN | not soluble
MGSDKIHHHHHHMKNRIIEKIENALQTLKNGGLIIITDDENRESEGDMVGLAEYVTPKAVNTMVTNARGLLCVPMSAEIAQKLGLSPMVTNAEDAFGTAFTISTDAKTTKTGISAFDRAKTIQKLADPQAKFSEFYHPGHVFPLIAEEGGVLARGGHTEAAVDLAKLAGVRPVAYITEVLKKDGTMARRNTLKSLAEGMQMPLLTIEEIKIYRYMKDAGIVKSVAKVHLPTKYGEFEMEAFDTGAGQEPTLLLTKGSLSEVQPLLLRIHSECLTGDIFGSKRCDCGEQLERSLKEIQSRGRGALLYLRQEGRGIGLANKLKAYELQEQGMDTVEANLKLGFQADERHYGVAAAILRKKGITKVNLLTNNPDKIKQLETLGIKVEERVTIQIPARPENRSYLKVKKEKMHHLLKGMD | not soluble
MQKKSIYVAYTGGTIGMQRSEQGYIPVSGHLQRQLALMPEFHRPEMPDFTIHEYTPLMDSSDMTPEDWQHIAEDIKAHYDDYDGFVILHGTDTMAYTASALSFMLENLGKPVIVTGSQIPLAELRSDGQINLLNALYVAANYPINEVTLFFNNRLYRGNRTTKAHADGFDAFASPNLPPLLEAGIHIRRLNTPPAPHGEGELIVHPITPQPIGVVTIYPGISADVVRNFLRQPVKALILRSYGVGNAPQNKAFLQELQEASDRGIVVVNLTQCMSGKVNMGGYATGNALAHAGVIGGADMTVEATLTKLHYLLSQELDTETIRKAMSQNLRGELTPDD | soluble
MRDFNNAQITRLKVRQNAVFEKLDLEFKDGLSAISGASGVGKSVLIASLLGAFGLKESNASNIEVELIAPFLDTEEYGIFREDEHEPLVISVIKKEKTRYFLNQTSLSKNTLKALLKGLIKRLSNDRFSQNELNDILMLSLLDGYIQNENKAFSPLLGALEEKFTRLEKLEKERRLLEDKKRFQKDLEERLNFEKMKLERLDLKEDEYERLLEQKKLLSSKEKLNDKIALAL | not soluble
MANSITADEIREQFSQAMSAMYQQEVPQYGTLLELVADVNLAVLENNPQLHEKMVNADELARLNVERHGAIRVGTAQELATLRRMFAIMGMYPVSYYDLSQAGVPVHSTAFRPIDDASLARNPFRVFTSLLRLELIENEILRQKAAEILRQRDIFTPRCRQLLEEYEQQGGFNETQAQEFVQEALETFRWHQSATVDEETYRALHNEHRLIADVVCFPGCHINHLTPRTLDIDRVQSMMPECGIEPKILIEGPPRREVPILLRQTSFKALEETVLFAGQKQGTHTARFGEIEQRGVALTPKGRQLYDDLLRNAGTGQDNLTHQMHLQETFRTFPDSEFLMRQQGLAWFRYRLTPSGEAHRQAIHPGDDPQPLIERGWVVAQPITYEDFLPVSAAGIFQSNLGNETQTRSHGNASREAFEQALGCPVLDEFQLYQEAEERSKRRCGLLLEHHHHHH | soluble
